Results on three compounds are retold here after article PMC12153350, “Evolution of carbapenemase activity in the class C β-lactamase ADC-1” (mBio, 2025).

Series [1] relates to C[C@@H](O)[C@H]1C(=O)N2C(C(=O)O)=C(SCCN=CN)C[C@H]12. Kind of series: purified protein. Particulars: 50 mM sodium phosphate, pH 7.4, 22°C.
Series [2] concerns C[C@@H](O)[C@H]1C(=O)N2C(C(=O)O)=C(S[C@@H]3CN[C@H](C(=O)N(C)C)C3)[C@H](C)[C@H]12. In words: purified protein. Particulars: 50 mM sodium phosphate, pH 7.4, 22°C.
The subject of series [3] is C[C@@H](O)[C@H]1C(=O)N2C(C(=O)O)=C(S[C@@H]3CN[C@H](C(=O)Nc4cccc(C(=O)O)c4)C3)[C@H](C)[C@H]12. In words: purified protein. Particulars: 50 mM sodium phosphate, pH 7.4, 22°C.
The subject of series [4] is CC1(C)S[C@@H]2[C@H](NC(=O)[C@H](N)c3ccccc3)C(=O)N2[C@H]1C(=O)O. Kind of series: purified protein. Particulars: 50 mM sodium phosphate, pH 7.4, 22°C.
Series [5] concerns C[C@@H](O)[C@H]1C(=O)N2C(C(=O)O)=C(S[C@@H]3CN[C@H](CNS(N)(=O)=O)C3)[C@H](C)[C@H]12. In words: purified protein. Particulars: 50 mM sodium phosphate, pH 7.4, 22°C.
In another series the target is T1, ADC-1 (Acinetobacter baumannii, UniProt Q9L4R5).
T1 construct: gene ampC; expressed and purified as in earlier work (gene in pET24a(+)); dimer in asymmetric unit
Kind of series: X-ray crystal structure of acyl-enzyme (soak). To be noted: covalent; acyl-enzyme at Ser64; two binding modes, monomers A and B.

Broadly, the Km is the concentration of substrate that gives half-maximal velocity. Broadly, the kcat is the maximal rate divided by the concentration of active sites. Broadly, the kcat/Km is the second-order rate constant that governs catalysis at low substrate concentration. ADC-1 (Acinetobacter baumannii): the Km in series [1] is reported as 1.3 ± 0.2 µM; in series [2] it was 11 ± 1 µM. For the same compound, the kcat worked out at 0.001 s⁻¹ in series [1], 0.0034 s⁻¹ in series [2] and 0.00037 s⁻¹ in series [3]. Moreover, the values for the kcat/Km in series [1], in series [2] and in series [3] were 810 M⁻¹ s⁻¹, 310 M⁻¹ s⁻¹ and not below 370 M⁻¹ s⁻¹, respectively.
Consider ADC-68 (Acinetobacter baumannii), for which the kcat in series [4] amounted to 3.2 ± 0.1 s⁻¹; in series [1] it was 0.0036 ± 0.0001 s⁻¹; in series [2], 0.028 ± 0.001 s⁻¹; in series [3] it was 0.011 ± 0.001 s⁻¹; in series [5], 0.0049 ± 0.0001 s⁻¹. Further, the kcat/Km in series [4] is not below 650000 M⁻¹ s⁻¹; in series [1], 3600 ± 700 M⁻¹ s⁻¹; in series [2], 550 ± 40 M⁻¹ s⁻¹; in series [3] it was 3300 ± 700 M⁻¹ s⁻¹; in series [5], 820 ± 60 M⁻¹ s⁻¹. The Km in series [1] is 1.0 ± 0.2 µM; in series [2], 50 ± 4 µM; in series [3] it was 3.5 ± 0.7 µM; in series [5], 6.0 ± 0.4 µM.
For `C[C@@H](O)[C@H]1C(=O)N2C(C(=O)O)=C(S[C@@H]3CN[C@H](C(=O)Nc4cccc(C(=O)O)c4)C3)[C@H](C)[C@H]12` [ETP, ertapenem], the “X-ray crystal structure of acyl-enzyme (soak)” value at ADC-1 is reported as “The crystal structure of the ADC-1–ertapenem acyl–enzyme complex shows a clear dimorphism between the two monomers”.
